What was measured:
HIF-1α [1] = experiment: In vitro interaction (GST pull-down) assay of OS-9 with GST-HIF-1α fusion proteins; type: binding, human; conditions: FIG. 2A
Experimental: (§1) To prepare GST fusion proteins, E. coli BL21-Gold(DE3)pLysS (Stratagene) was transformed with a pGEX expression vector and treated for 4 h with 0.5 mM isopropyl-D-thiogalactoside. Pelleted cells were lysed by sonication in PBS containing 1% Triton X-100 and Complete protease inhibitor cocktail (Roche). After centrifugation, supernatants were applied to glutathione-Sepharose 4B beads (Amersham Pharmiacia Biotech). GST fusion proteins were eluted with 10 mM reduced glutathione in 50 mM Tris-HCl (pH 8.0) and stored at −80° C. The concentration and purity of eluates were determined by the Bradford method and by SDS-PAGE. [^35S]methionine-labeled proteins were generated in reticulocyte lysates with plasmids encoding HA-OS-9 or FLAG-VHL using the TNT T7 coupled transcription/translation system (Promega). Ten μl of in vitro-translated ^35S-labeled protein was mixed with 4 μg of GST or GST-HIF-1α fusion protein (Mahon et al. 2001) in a final volume of 200 μof PBS-T binding buffer (Dulbecco's PBS [pH 7.4], 0.1% Tween-20). The binding reaction was performed at 4° C. for 2 h with rotation followed by the addition of […] pre-washed glutathione-Sepharose 4B beads. After 30 min of mixing on a rotator, the beads were washed three times with PBS-T. Proteins were eluted in Laemmli sample buffer and analyzed by SDS-PAGE followed by autoradiography.

HIF-1α [2] = target: T1, HIF-1α (Homo sapiens, UniProt Q16665); experiment: Co-immunoprecipitation of HA-OS-9 and HIF-1α in 293 cells; type: cell-based; conditions: anti-HA immunoprecipitation, FIG. 2B
Experimental: (§2) 293 cells (3×10^6 cells per […] plate) were transfected with Lipofectamine Plus and a total of 10 μg of expression vectors. After 24 h, cells were lysed with PBS/0.1% Tween-20. 400 μg of whole cell lysate (brought to a final volume of 200 μl with lysis buffer) were immunoprecipitated using anti-HA affinity matrix (Roche) followed by immunoblot assay using antibody against HIF-1α (Zhong et al. 1999), PHD 1-3 (Novus Biologicals Inc.), or HA (Roche).
Target sequence in this assay (Q16665 whole entry): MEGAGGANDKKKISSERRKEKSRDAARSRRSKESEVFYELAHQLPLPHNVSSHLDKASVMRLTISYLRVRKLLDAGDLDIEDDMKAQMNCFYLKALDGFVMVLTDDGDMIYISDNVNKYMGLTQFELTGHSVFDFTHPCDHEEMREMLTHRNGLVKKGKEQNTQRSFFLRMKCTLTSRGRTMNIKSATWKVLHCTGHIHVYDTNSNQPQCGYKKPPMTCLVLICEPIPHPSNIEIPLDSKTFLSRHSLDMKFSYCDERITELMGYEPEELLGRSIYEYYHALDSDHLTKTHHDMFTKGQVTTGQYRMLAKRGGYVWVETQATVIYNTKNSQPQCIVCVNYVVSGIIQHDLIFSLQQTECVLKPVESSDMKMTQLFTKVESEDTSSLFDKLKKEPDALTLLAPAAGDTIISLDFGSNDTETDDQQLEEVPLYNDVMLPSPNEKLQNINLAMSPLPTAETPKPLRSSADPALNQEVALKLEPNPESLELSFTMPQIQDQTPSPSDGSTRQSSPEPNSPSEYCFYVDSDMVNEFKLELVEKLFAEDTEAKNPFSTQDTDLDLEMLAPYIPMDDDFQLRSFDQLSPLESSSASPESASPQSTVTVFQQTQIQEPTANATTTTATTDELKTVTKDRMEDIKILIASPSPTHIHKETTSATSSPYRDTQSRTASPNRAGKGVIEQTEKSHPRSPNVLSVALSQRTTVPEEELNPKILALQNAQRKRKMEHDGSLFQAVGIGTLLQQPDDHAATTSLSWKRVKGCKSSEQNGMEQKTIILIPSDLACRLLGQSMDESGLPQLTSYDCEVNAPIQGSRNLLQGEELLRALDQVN

HIF-1α [3] = target: T1, HIF-1α; experiment: In vitro interaction (GST pull-down) assay of OS-9 with GST-HIF-1α fusion proteins; type: binding; design: made in house; host or cells: E. coli BL21-Gold(DE3)pLysS (GST fusion); rabbit reticulocyte lysate TNT T7 (HA-OS-9); conditions: increasing amounts of in vitro-translated OS-9, desferrioxamine present; FIG. 6C
Experimental: as §1
Target sequence in this assay (Q16665 531-826): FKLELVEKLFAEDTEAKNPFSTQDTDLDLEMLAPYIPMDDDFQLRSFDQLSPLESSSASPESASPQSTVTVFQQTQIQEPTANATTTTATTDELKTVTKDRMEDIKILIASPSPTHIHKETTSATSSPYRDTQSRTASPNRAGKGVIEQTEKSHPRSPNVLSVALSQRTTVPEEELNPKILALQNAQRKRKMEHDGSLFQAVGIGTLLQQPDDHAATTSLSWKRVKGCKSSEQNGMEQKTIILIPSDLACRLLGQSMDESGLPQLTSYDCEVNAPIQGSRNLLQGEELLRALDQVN

PHD2 [4] = target: T2, PHD2 (Homo sapiens, UniProt Q9GZT9); experiment: Co-immunoprecipitation of HA-OS-9 with PHD2 in 293 cells; type: cell-based; conditions: anti-HA immunoprecipitates, immunoblot; FIG. 5
T2 construct: expressed in transfected cells; host or cells: 293 cells (whole cell lysate used as the enzyme source)
Experimental: as §2

PHD2 [5] = experiment: PHD2 protein levels by immunoblot in transfected 293 cells; type: cell-based, human; conditions: co-transfection of OS-9 vector; FIG. 7C
Experimental: 293 or Hep3B cells were seeded onto 24-well plates at 8×10^4 cells per well of a 24-well plate. The following day, the cells were transfected with plasmid DNAs using Fugene-6 (Roche) for 293 and Lipofectamine Plus (Invitrogen) for Hep3B cells. After 24 h, the cells were exposed to 20% or 1% O2 for 24 h. Cells were lysed, and the luciferase activities were determined by multi-well luminescence reader (PerkinElmer), using the Dual-Luciferase Reporter Assay System (Promega). For p2.1 reporter assay, cells were co-transfected with 15 ng of control reporter pSV-Renilla, 135 ng of HIF-1 reporter p2.1, and expression vector encoding HA-OS-9, HIF-1α, or empty vector. Unless indicated otherwise, 200 ng of HIF-1α, 400 ng of HA-OS-9, 1 ng of PHD2, or 1 ng of HIF-1α triple mutant P402A/P564A/N803A (HIF-1α TM) expression vector was used for co-transfection. […]
For in vitro VHL binding assay, preincubated GstA and 5 μl of [^35S]methionine-labeled VHL protein were mixed in a total volume of 300 μl of PBS-T with 1 mM desferrioxamine and incubated at 4° C. for 90 min. […] Beads were washed three times with PBS-T. Proteins were eluted in Laemmli sample buffer, fractionated by SDS-PAGE, and detected by autoradiography. […]

HIF-1α [6] = experiment: HIF-1α protein levels by immunoblot in transfected 293 cells; type: cell-based, human
Experimental: 293 or Hep3B cells were seeded onto 24-well plates at 8×10^4 cells per well of a 24-well plate. The following day, the cells were transfected with plasmid DNAs using Fugene-6 (Roche) for 293 and Lipofectamine Plus (Invitrogen) for Hep3B cells. After 24 h, the cells were exposed to 20% or 1% O2 for 24 h. Cells were lysed, and the luciferase activities were determined by multi-well luminescence reader (PerkinElmer), using the Dual-Luciferase Reporter Assay System (Promega). For p2.1 reporter assay, cells were co-transfected with 15 ng of control reporter pSV-Renilla, 135 ng of HIF-1 reporter p2.1, and expression vector encoding HA-OS-9, HIF-1α, or empty vector. Unless indicated otherwise, 200 ng of HIF-1α, 400 ng of HA-OS-9, 1 ng of PHD2, or 1 ng of HIF-1α triple mutant P402A/P564A/N803A (HIF-1α TM) expression vector was used for co-transfection. For pGalA reporter assays, Hep3B cells were co-transfected with 12.5 ng of pSV-Renilla, reporter 200 ng of pG5ElbLuc, 100 ng of expression vector encoding the GAL4 DNA-binding domain alone or fused to HIF-1α residues 531-826 (Jiang et al. 1997) and empty vector or vector encoding HA-OS-9. For immunoblot assays, 293 cells were seeded at 3×10^6 cells per 10-cm plate. The following day, the cells were co-transfected with expression vectors using Fugene-6. After 24 h, the cells were exposed to 20% or 1% O2 with or without MG132 (10 μM) for 8 h and lysed in 200 μl of lysis buffer containing 50 mM Tris-Cl (pH 8.0), 150 mM NaCl, 5 mM EDTA, 0.1% SDS, 1% NP-40, 0.5% sodium deoxycholate, Complete protease inhibitor cocktail (Roche), sodium orthovanadate, and sodium vanadate (Sigma).

PHD1 = target: T3, PHD1 (Homo sapiens, UniProt Q96KS0); experiment: Co-immunoprecipitation of HA-OS-9 with PHD1 in 293 cells; type: cell-based; conditions: anti-HA immunoprecipitates, immunoblot; FIG. 5
T3 construct: expressed in transfected cells; host or cells: 293 cells
Experimental: as §2

PHD2 [7] = target: T2, PHD2; experiment: PHD binding assay (pull down of PHD2 with GST-HIF-1α (531-826)); conditions: lysates from cells transfected with OS-9 and PHD2 vectors versus PHD2 vector alone; FIG. 7B
Experimental: For in vitro VHL binding assay, preincubated GstA and 5 μl of [^35S]methionine-labeled VHL protein were mixed in a total volume of 300 μl of PBS-T with 1 mM desferrioxamine and incubated at 4° C. for 90 min. 20 ul of glutathione-Sepharose-4B beads (Amersham Biosciences) was added and incubated for 30 min with rotation. Beads were washed three times with PBS-T. Proteins were eluted in Laemmli sample buffer, fractionated by SDS-PAGE, and detected by autoradiography. For PHD binding assay, […] of GST-HIF-1α was preincubated with 50 μg of -whole cell lysate in a total volume of 50 μl with PBS-T at 30° C. for 10 min with or without 1 mM DMOG. The reaction was terminated by addition of desferrioxamine to 1 mM, 20 μl of glutathione-Sepharose-4B beads were added and incubated for 30 min. The beads were washed three times with PBS-T. Bound protein was eluted in Laemmli sample buffer, fractionated by SDS-PAGE, and subjected to immunoblot assay using antibodies against PHD2 (Novus Biologicals Inc.) or GST (Amersham).

T2 sequence (Q9GZT9 whole entry): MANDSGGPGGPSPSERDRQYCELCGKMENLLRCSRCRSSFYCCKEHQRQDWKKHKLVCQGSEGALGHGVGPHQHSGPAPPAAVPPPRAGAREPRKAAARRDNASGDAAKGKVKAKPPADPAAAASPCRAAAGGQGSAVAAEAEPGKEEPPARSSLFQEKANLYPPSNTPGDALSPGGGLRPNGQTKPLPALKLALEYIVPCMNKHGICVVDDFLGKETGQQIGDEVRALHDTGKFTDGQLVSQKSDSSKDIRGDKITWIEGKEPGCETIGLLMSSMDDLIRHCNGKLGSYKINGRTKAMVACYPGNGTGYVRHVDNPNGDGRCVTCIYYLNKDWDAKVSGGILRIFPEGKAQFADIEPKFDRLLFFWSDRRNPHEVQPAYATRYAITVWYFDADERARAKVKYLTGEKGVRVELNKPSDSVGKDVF
T3 sequence (Q96KS0 whole entry): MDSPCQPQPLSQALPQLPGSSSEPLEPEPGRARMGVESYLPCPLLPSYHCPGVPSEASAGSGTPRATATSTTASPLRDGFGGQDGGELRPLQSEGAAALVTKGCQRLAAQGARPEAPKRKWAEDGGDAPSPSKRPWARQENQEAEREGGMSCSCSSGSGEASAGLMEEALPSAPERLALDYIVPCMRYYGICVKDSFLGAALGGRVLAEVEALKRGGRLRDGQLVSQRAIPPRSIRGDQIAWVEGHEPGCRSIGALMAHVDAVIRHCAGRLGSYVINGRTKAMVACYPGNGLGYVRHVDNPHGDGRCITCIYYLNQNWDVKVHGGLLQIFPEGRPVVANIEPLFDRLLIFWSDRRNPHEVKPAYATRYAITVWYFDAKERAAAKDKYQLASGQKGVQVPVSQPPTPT

B1: OS-9: human OS-9 protein (667-residue isoform), HA-tagged, from expression vector or in vitro-translated (protein)
chain: MAAETLLSSLLGLLLLGLLLPASLTGGVGSLNLEELSEMRYGIEILPLPVMGGQSQSSDVVIVSSKYKQRYECRLPAGAIHFQREREEETPAYQGPGIPELLSPMRDAPCLLKTKDWWTYEFCYGRHIQQYHMEDSEIKGEVLYLGYYQSAFDWDDETAKASKQHRLKRYHSQTYGNGSKCDLNGRPREAEVRFLCDEGAGISGDYIDRVDEPLSCSYVLTIRTPRLCPHPLLRPPPSAAPQAILCHPSLQPEEYMAYVQRQADSKQYGDKIIEELQDLGPQVWSETKSGVAPQKMAGASPTKDDSKDSDFWKMLNEPEDQAPGGEEVPAEEQDPSPEAADSASGAPNDFQNNVQVKVIRSPADLIRFIEELKGGTKKGKPNIGQEQPVDDAAEVPQREPEKERGDPERQREMEEEEDEDEDEDEDEDERQLLGEFEKELEGILLPSDRDRLRSEVKAGMERELENIIQETEKELDPDGLKKESERDRAMLALTSTLNKLIKRLEEKQSPELVKKHKKKRVVPKKPPPSPQPTEEDPEHRVRVRVTKLRLGGPNQDLTVLEMKRENPQLKQIEGLVKELLEREGLTAAGKIEIKIVRPWAEGTEEGARWLTDEDTRNLKEIFFNILVPGAEEAQKERQRQKELESNYRRVWGSPGGEGTGDLDEFDF
modifications: left off: small tags and cut ends
notes: human OS-9 protein (667-residue isoform), HA-tagged, from expression vector or in vitro-translated
In the case of B1, the “binding of OS-9 to GST-HIF-1α” value (HIF-1α [1]; HIF-1α residues 1-329, 429-608, 531-610, and 786-826) is reported as “did not bind”, the “binding of OS-9 to GST-HIF-1α” value (HIF-1α [1]; HIF-1α residues 531-826, 653-826, or 692-826) is reported as “efficiently bound” and the “interaction of HA-OS-9 and HIF-1α in living cells” value (HIF-1α [2]) is reported as “coimmunoprecipitation”. The “binding of OS-9 to GST-HIF-1α (531-826)” value (HIF-1α [3]) was “dose-dependent manner”, the “interaction of OS-9 with PHD2” value (PHD2 [4]) was “interaction” and the PHD2 protein levels (PHD2 [5]) was “no effect”. For the same molecule, the HIF-1α protein levels (HIF-1α [6]; 293 cells co-transfected with HIF-1α and OS-9 expression vector, FIG. 3C) was “reduced”, the “levels of HIF-1α-TM (P402A/P564A/N803A)” value (HIF-1α [6]; 293 cells co-transfected with OS-9 expression vector, FIG. 4A) was “no effect” and the “levels of FLAG-tagged HIF-1α” value (HIF-1α [6]; 293 cells, increasing amounts of PHD2 expression vector, presence of OS-9, FIG. 6A) was “dramatically reduced”. The “interaction of OS-9 with PHD1” value (PHD1) was “interaction” and the “binding of PHD2 to GST-HIF-1α (531-826)” value (PHD2 [7]) was “increased binding”.
